Earlier results as cited in paper PMC6518430.
pKd: −log10 of the molar value.

Assays:
[1] = target: IL-23R (Homo sapiens) (UniProt Q5VWK5)
[2] = target: IL-12Rβ1 (Homo sapiens) (UniProt P42701)

Sequence of IL-23 (Q9NPF7 20-189): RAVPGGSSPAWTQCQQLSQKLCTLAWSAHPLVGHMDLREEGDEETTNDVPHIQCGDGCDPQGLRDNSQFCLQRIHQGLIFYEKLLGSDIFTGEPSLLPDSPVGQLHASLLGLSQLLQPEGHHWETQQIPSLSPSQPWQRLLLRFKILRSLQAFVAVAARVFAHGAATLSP
Sequence of IL-23 (P29460 23-328, further chain): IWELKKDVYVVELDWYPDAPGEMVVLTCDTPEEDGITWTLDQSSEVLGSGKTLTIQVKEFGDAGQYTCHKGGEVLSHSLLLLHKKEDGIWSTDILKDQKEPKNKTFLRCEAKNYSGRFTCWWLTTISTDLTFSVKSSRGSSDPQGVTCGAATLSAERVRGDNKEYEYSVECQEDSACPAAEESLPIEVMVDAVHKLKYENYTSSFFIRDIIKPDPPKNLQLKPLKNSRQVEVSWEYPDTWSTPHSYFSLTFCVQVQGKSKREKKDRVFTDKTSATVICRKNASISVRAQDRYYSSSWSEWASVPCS
Sequence of IL-23R (Homo sapiens) (Q5VWK5 24-355): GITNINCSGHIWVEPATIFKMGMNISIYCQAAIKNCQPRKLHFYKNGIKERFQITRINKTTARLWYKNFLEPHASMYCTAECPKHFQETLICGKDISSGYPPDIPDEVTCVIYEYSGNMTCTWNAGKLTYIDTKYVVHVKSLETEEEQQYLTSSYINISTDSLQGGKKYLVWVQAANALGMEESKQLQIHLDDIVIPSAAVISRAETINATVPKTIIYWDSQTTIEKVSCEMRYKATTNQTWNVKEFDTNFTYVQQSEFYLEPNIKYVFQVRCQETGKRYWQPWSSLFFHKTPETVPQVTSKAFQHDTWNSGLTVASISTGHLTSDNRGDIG

pKd [1]: 7.36
pKd [2]: 5.70
Substance: IL-23 (from UniProt Q9NPF7)
